In article PMC7962585 (Cell, 2021):

B1: S2X333 IgG1 (antibody, V domains shown)
VH: VQLVESGGGVVQPGRSLRLSCAASGFTFSNYGMHWVRQAPGKGLEWVAVIWYDGSNKFYADSVKGRFTISRDNSKNSLYLQMNSLRAEDTAVYFCARAFPDSSSWSGFTIDYWGQGTLVTV
VL: YELTQPPSVSTARITCGGNNIERKSVHWCQQKPGQAPALVVYDDSDRPSGIPERFSGSNSGNTATLTISRVEAGDEADYYCQVWDSGSDQVIFGGGTKLT
B2: S2M28 IgG1 (antibody, V domains shown)
VH: EVQLVESGGGVVQPGRSLRLSCAASGFTFSSYGMHWVRQAPGKGLEWVTVIWYDGSNRYYADSVKGRFTISRDNSKNTLYLQMDSLRAEDTAVYYCARAVAGEWYFDYWGQGTLVTVSS
VL: SYELTQPPSVSVSPGQTARITCSGDALAKHYAYWYRQKPGQAPVLVIYKDSERPSGIPERFSGSSSGTTVTLTISGVQAEDEADYYCQSADSIGSSWVFGGGTKLTVL
B3: S2L28 IgG1 (antibody, V domains shown)
VH: EVQLVESGGGLVNPGGSLRLSCAASGFTFSDYTIHWVRQAPGKGLEWVSSISSSSNYIYYADSVKGRFTISRDNAKNSLSLQMNSLRAEDTAVYYCARDGNAYKWLLAENVRFDYWGQGTLVTVSS
VL: VTQPASVSGSPGQSITISCTGTSSDVGGYNYVSWYQQHPGKAPKLMIYDVSDRPSGVSNRFSGSKSGNTASLTISGLQAEDEADYYCSSYTSSSTPNWVFGGGTKLT

What follows are binders tested against full-length wild-type SARS-CoV-2 S (Severe acute respiratory syndrome …, UniProt P0DTC2) (assay: flow cytometry on cells).

Row | Binder | binding result
1 | B1 | binds
2 | B2 | binds
3 | B3 | binds
